Laboratory results reported in patent US20240287150A1 (Harvard, published 2024).

Target: T1, EPO receptor (EPOR) on TF-1 cells (human, UniProt P19235 25-508)
T1 sequence (looked up): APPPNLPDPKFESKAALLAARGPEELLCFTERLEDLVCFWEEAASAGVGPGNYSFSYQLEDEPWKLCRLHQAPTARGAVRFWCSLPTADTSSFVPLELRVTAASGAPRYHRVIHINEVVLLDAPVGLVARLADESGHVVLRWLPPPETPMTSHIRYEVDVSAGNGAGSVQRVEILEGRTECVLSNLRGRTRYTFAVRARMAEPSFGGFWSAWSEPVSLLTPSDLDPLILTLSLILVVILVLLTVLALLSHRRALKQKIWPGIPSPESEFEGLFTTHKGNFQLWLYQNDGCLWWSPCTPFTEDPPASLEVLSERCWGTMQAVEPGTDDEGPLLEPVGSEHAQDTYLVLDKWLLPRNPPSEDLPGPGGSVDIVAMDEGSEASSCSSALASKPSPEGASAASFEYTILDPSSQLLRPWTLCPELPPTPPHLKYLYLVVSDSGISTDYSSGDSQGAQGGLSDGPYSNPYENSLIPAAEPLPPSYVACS
Test: cell-based or functional assay

## Darbepoetin (Aranesp), hyperglycosylated EPO (ligand)
  EC50 relative to epoetin alfa, TF-1 cell proliferation: 14.2 fold
